Results from patent US20120107323A1, “KINASE PROTEIN BINDING INHIBITORS” (University of Florida, published 2012).

Columns and labels:
[1] = molecular target: T1, Insulin-like Growth Factor 1 Receptor (IGF-1R), endogenous, of C8161 and A375 melanoma cells (human, UniProt P08069); assay: co-immunoprecipitation from C8161 tumours of PBS treated mice, densitometry of Western blot
Protocol: (§1) (p<0.05). […] To assess the in vivo effects of INT2-31 on cell proliferation, C8161 xenografts were stained with Ki67 antibody (FIG. 20C). […] The effect of INT2-31 on the in vivo interaction of FAK and IGF-1R in C8161 tumors was analyzed by immunoprecipitation of FAK from treated and untreated tumor. […] Finally, tumor analysis for AKT activation was performed and the level of p-AKT was detected by Western blot. […] Therefore, our lead compound, INT2-31, decreases in vivo tumor growth, disrupts the in vivo interaction of FAK and IGF-1R and results in a decrease in phosphorylation of AKT.

[2] = molecular target: T1, Insulin-like Growth Factor 1 Receptor …; assay: co-immunoprecipitation from C8161 tumours of mice treated with the small molecule INT2-31, densitometry of Western blot
Protocol: as §1

B1: Focal adhesion kinase (FAK), endogenous, of C8161 and A375 melanoma cells (enzyme)
chain: AAAYLDPNLNHTPNSSTKTHLGTGMERSPGAMERVLKVFHYFESNSEPTTWASIIRHGDATDVRGIIQKIVDSHKVKHVACYGFRLSHLRSEEVHWLHVDMGVSSVREKYELAHPPEEWKYELRIRYLPKGFLNQFTEDKPTLNFFYQQVKSDYMLEIADQVDQEIALKLGCLEIRRSYWEMRGNALEKKSNYEVLEKDVGLKRFFPKSLLDSVKAKTLRKLIQQTFRQFANLNREESILKFFEILSPVYRFDKECFKCALGSSWIISVELAIGPEEGISYLTDKGCNPTHLADFTQVQTIQYSNSEDKDRKGMLQLKIAGAPEPLTVTAPSLTIAENMADLIDGYCRLVNGTSQSFIIRPQKEGERALPSIPKLANSEKQGMRTHAVSVSETDDYAEIIDEEDTYTMPSTRDYEIQRERIELGRCIGEGQFGDVHQGIYMSPENPALAVAIKTCKNCTSDSVREKFLQEALTMRQFDHPHIVKLIGVITENPVWIIMELCTLGELRSFLQVRKYSLDLASLILYAYQLSTALAYLESKRFVHRDIAARNVLVSSNDCVKLGDFGLSRYMEDSTYYKASKGKLPIKWMAPESINFRRFTSASDVWMFGVCMWEILMHGVKPFQGVKNNDVIGRIENGERLPMPPNCPPTLYSLMTKCWAYDPSRRPRFTELKAQLSTILEEEKAQQEERMRMESRRQATVSWDSGGSDEAPPKPSRPGYPSPRSSEGFYPSPQHMVQTNHYQVSGYPGSHGITAMAGSIYPGQASLLDQTDSWNHRPQEIAMWQPNVEDSTVLDLRGIGQVLPTHLMEERLIRQQQEMEEDQRWLEKEERFLKPDVRLSRGSIDREDGSLQGPIGNQHIYQPVGKPDPAAPPKKPPRPGAPGHLGSLASLSSPADSYNEGVKLQPQEISPPPTANLDRSNDKVYENVTGLVKAVIEMSSKIQPAPPEEYVPMVKEVGLALRTLLATVDETIPLLPASTHREIEMAQKLLNSDLGELINKMKLAQQYVMTSLQQEYKKQMLTAAHALAVDAKNLLDVIDQARLKMLGQTRPH
[1]
  densitometry ratio of IGF-1R to FAK: 0.98
[2]
  densitometry ratio of IGF-1R to FAK: 0.78
